Data as given in patent US20150198603A1 (TORAY INDUSTRIES, published 2015).

What was measured:
[1] = molecular target: T1, human CAPRIN-1 as expressed on human breast cancer cell line MDA-MB-231V and in human cancer tissues (human, UniProt Q14444 2-709); experiment: flow cytometry on MDA-MB-231V cells expressing CAPRIN-1
T1 construct: whole, on cells; Endogenous protein on cells (flow cytometry) or in paraffin tissue sections (immunohistochemistry); also called CAPRIN-1 on the surface of breast cancer cells; CAPRIN-1 in the breast cancer tissues
T1 sequence (looked up): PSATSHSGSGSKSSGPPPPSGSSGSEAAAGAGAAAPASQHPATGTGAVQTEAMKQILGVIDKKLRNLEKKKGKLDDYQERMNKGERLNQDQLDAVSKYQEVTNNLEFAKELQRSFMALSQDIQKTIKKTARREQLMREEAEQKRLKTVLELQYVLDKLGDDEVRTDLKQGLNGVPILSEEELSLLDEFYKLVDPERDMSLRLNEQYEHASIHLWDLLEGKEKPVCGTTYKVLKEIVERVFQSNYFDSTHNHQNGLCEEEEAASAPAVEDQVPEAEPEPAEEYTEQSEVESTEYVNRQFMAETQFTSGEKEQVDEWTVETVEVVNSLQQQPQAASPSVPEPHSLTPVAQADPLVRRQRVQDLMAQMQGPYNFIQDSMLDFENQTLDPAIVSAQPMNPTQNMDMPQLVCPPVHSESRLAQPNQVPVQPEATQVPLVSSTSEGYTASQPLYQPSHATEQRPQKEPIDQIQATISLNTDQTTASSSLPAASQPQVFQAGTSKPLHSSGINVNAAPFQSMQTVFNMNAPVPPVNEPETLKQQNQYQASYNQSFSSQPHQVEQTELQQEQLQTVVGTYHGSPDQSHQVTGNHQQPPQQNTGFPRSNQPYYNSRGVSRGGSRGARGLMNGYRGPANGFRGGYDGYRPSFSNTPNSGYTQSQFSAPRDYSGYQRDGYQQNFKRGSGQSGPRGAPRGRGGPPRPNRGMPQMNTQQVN
Experimental: Next, these monoclonal antibodies were screened for antibodies reactive with the surface of breast cancer cells expressing CAPRIN-1. Specifically, 5×10⁵ cells of a human breast cancer cell line MDA-MB-231V were centrifuged in a 1.5-mL microcentrifuge tube. 100 μL of the culture supernatant of each hybridoma obtained above was added thereto and left standing for 1 hour on ice. After washing with PBS, FITC-labeled goat anti-chicken IgG (H+L) antibodies (SouthernBiotech) diluted 30-fold with PBS containing 0.1% FBS were added thereto and left standing for 1 hour on ice. After washing with PBS, the fluorescence intensity was measured using FACSCalibur (Becton, Dickinson and Company). On the other hand, the same operation as above was performed using a medium for hybridoma culture to prepare a control sample. As a result, 1 monoclonal antibody (chicken anti-human CAPRIN-1 monoclonal antibody #11) having stronger fluorescence intensity than that of the control, i.e., reactive with the surface of breast cancer cells expressing CAPRIN-1, was selected.

[2] = molecular target: T2, peptide consisting of the amino acid sequence shown in SEQ ID NO: 66 (partial CAPRIN-1 sequence) (human); experiment: told from the digestion and MS/MS experiment done with #12
T2 peptide: QQPQAASPSVPE
Experimental: The cancer cell surface-reactive mouse-chicken chimeric anti-human CAPRIN-1 monoclonal antibody #12 obtained in the paragraph (4) was used to identify a CAPRIN-1 epitope region recognized thereby. 100 μg of recombinant CAPRIN-1 proteins was dissolved in a […] dissolving buffer and reacted with the monoclonal antibody #12. To this solution, a digestive enzyme trypsin or chymotrypsin was added, followed by digestion reaction at a proper temperature. After the reaction, a protein G Sepharose carrier was added thereto, then reacted, and precipitated by centrifugation operation. After removal of the supernatant, the carrier was washed with a dissolving buffer and PBS and dissolved in 0.1% formic acid, and the supernatant was recovered. The recovered supernatant sample was applied to a reverse-phase column (HLB Extraction Cartridge (Waters-OASIS)) to obtain an antibody-free sample solution. The obtained sample was subjected to reverse-phase liquid chromatography (Chromatography Nanosytem (KYA Technologies Corp.)) to recover a solution containing only peptides. The solution was introduced to a tandem-type mass spectrometer Quadrupole-TOF Mass Spectrometer (Waters-MicroMass) and analyzed by MS/MS to detect the peptides contained in the sample. […]

[3] = molecular target: T3, human CAPRIN-1 having the amino acid sequence shown in SEQ ID NO: 2 (recombinant, as prepared in Example 3 of … (human, UniProt Q14444 1-709)); experiment: ELISA, plate coated with 1 µg/mL CAPRIN-1, hybridoma supernatant
T3 construct: limits and tags of the recombinant construct are described only in WO2010/016526; also called recombinant CAPRIN-1; CAPRIN-1 solution
T3 sequence: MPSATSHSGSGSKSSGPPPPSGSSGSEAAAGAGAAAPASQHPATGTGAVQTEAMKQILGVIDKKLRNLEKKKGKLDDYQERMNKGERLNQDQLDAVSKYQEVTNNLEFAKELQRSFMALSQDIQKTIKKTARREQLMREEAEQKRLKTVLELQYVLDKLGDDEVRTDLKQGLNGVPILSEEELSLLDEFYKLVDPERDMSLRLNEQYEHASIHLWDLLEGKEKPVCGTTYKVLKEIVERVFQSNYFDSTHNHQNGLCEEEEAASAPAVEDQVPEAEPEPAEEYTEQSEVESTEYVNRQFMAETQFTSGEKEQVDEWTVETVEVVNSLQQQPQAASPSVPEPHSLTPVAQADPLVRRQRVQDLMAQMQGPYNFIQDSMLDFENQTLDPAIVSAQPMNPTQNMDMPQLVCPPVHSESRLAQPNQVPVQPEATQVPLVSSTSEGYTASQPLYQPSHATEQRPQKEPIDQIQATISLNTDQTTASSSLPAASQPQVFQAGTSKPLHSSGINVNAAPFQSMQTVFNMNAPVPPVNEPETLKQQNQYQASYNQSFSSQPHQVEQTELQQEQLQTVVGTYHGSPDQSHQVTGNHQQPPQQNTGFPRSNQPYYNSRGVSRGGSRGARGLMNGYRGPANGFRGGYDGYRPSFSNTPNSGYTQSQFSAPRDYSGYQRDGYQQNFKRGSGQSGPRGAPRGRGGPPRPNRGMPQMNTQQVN
Experimental: The prepared hybridomas were screened with the binding affinity of antibodies produced by the hybridomas against CAPRIN-1 as an indicator. The 1 μg/mL CAPRIN-1 solution was added to a 96-well plate at 100 μL/well and left standing at 4° C. for 18 hours. Each well was washed three times with PBS-T. Then, a 0.5% bovine serum albumin (BSA) solution (Sigma-Aldrich Corp.) was added thereto at 400 μL/well and left standing at room temperature for 3 hours. The solution in each well was discarded, and each well was washed three times with 400 μL of PBS-T. Then, the culture supernatant of each hybridoma obtained above was added thereto at 100 μL/well and left standing at room temperature for 2 hours. Each well was washed three times with PBS-T. Then, HRP-labeled anti-chicken IgY antibodies (Sigma-Aldrich Corp.) diluted 5000-fold with PBS were added thereto at 100 μL/well and left standing at room temperature for 1 hour. Each well was washed three times with PBS-T. Then, a TMB substrate solution (Thermo Fisher Scientific Inc.) was added thereto at 100 μL/well and left standing for 15 to 30 minutes to cause color reaction. […] The absorbance was measured at 450 nm and 595 nm using an absorption spectrometer. As a result, several hybridomas producing antibodies having high absorbance were selected as candidate lines of the hybridoma of interest.

Measured: binding result

B1: chicken anti-human CAPRIN-1 monoclonal antibody #11 (antibody, V domains shown)
VH: AVTLDESGGGLQMSRGGLSLVCKASGFDFSSYQMNWIRQAPGKGLEFVAAINKFGNSTGHGAAVKGRVTISRDNGQSTVRLQLNNLRAEDTAIYFCTKHAYGYCGSGTWCAAGEIDAWGHGTEVIVSS
VL: QAASTQPSSVSANPGETVEITCSGGGSYSYGWFQQKSPGSAPVTVIYYNNKRPSDIPSRFSGSKSGSTGTLTITGVQADDEAVYYCGSGDSTDTAVFGAGTTLTVLG
notes: Chicken hybridoma antibody; also called chicken monoclonal antibody #11
binds: all assays above
